Laboratory results published in paper PMC9727770 (2023).

B1: Regn-10933 (antibody, V domains shown)
VH: QVQLVESGGGLVKPGGSLRLSCAASGFTFSDYYMSWIRQAPGKGLEWVSYITYSGSTIYYADSVKGRFTISRDNAKSSLYLQMNSLRAEDTAVYYCARDRGTTMVPFDYWGQGTLVTVSS
VL: DIQMTQSPSSLSASVGDRVTITCQASQDITNYLNWYQQKPGKAPKLLIYAASNLETGVPSRFSGSGSGTDFTFTISGLQPEDIATYYCQQYDNLPLTFGGGTKVEIK
B2: Eli Lilly Ly-CoV016 (antibody, V domains shown)
VH: EVQLVESGGGLVQPGGSLRLSCAASGFTVSSNYMSWVRQAPGKGLEWVSVIYSGGSTFYADSVKGRFTISRDNSMNTLFLQMNSLRAEDTAVYYCARVLPMYGDYLDYWGQGTLVTVSS
VL: not shown
B3: Regn-10987 (antibody, V domains shown)
VH: QVQLVESGGGVVQPGRSLRLSCAASGFTFSNYAMYWVRQAPGKGLEWVAVISYDGSNKYYADSVKGRFTISRDNSKNTLYLQMNSLRTEDTAVYYCASGSDYGDYLLVYWGQGTLVTVSS
VL: QSALTQPASVSGSPGQSITISCTGTSSDVGGYNYVSWYQQHPGKAPKLMIYDVSKRPSGVSNRFSGSKSGNTASLTISGLQSEDEADYYCNSLTSISTWVFGGGTKLTVL

Target: RBD of the SARS-CoV-2 L strain spike protein, soluble (SARS-CoV-2 (L strain), UniProt P0DTC2 319-541)
Assay: BLI

| Binder | Kd |
| --- | --- |
| B1 | 14.4 nM |
| B2 | 203 nM |
| B3 | 74.2 nM |
